Patent US20170319675A1
Blank lines part the entries; values can stand above or below the binder they belong to.

Experiments:
Assay in all cases: REVEAL MHC-peptide binding assay
HLA-DR7 (human) = target: HLA-DR7 (human)
HLA-DR2 (human) = target: HLA-DR2 (human)
HLA-DR1 (human) = target: HLA-DR1 (human)
HLA-DR5 (human) = target: HLA-DR5 (human)
HLA-DR4 (human) = target: HLA-DR4 (human)

- Relative Binding Score (% compared to the positive control) (HLA-DR7 (human)): 0.27
- Relative Binding Score (% compared to the positive control) (HLA-DR2 (human)): 0.05
- Relative Binding Score (% compared to the positive control) (HLA-DR1 (human)): 40.1
- Relative Binding Score (% compared to the positive control) (HLA-DR5 (human)): 104
- Relative Binding Score (% compared to the positive control) (HLA-DR4 (human)): 6.12
B1: BIR-002 (peptide, from a related filing)
peptide: TLGEFLKLDRERAKN

- Relative Binding Score (% compared to the positive control) (HLA-DR7 (human)): 3.69
- Relative Binding Score (% compared to the positive control) (HLA-DR2 (human)): 0.28
- Relative Binding Score (% compared to the positive control) (HLA-DR1 (human)): 0.87
- Relative Binding Score (% compared to the positive control) (HLA-DR5 (human)): 0.12
- Relative Binding Score (% compared to the positive control) (HLA-DR4 (human)): 5.89
B2: MET-005 (peptide, from a related filing)
peptide: TFSYVDPVITSISPKYG
